The target in this experiment is T1, MSH2蛋白 (endogenous, in HCT8 and Biu-87 cell lysates and in human tissue sections) (human, UniProt P43246 2-934).
T1 construct: Endogenous protein; also called MutS homolog 2
Put plainly: IHC on tonsil tissue.

T1 sequence (P43246 2-934 limits assumed): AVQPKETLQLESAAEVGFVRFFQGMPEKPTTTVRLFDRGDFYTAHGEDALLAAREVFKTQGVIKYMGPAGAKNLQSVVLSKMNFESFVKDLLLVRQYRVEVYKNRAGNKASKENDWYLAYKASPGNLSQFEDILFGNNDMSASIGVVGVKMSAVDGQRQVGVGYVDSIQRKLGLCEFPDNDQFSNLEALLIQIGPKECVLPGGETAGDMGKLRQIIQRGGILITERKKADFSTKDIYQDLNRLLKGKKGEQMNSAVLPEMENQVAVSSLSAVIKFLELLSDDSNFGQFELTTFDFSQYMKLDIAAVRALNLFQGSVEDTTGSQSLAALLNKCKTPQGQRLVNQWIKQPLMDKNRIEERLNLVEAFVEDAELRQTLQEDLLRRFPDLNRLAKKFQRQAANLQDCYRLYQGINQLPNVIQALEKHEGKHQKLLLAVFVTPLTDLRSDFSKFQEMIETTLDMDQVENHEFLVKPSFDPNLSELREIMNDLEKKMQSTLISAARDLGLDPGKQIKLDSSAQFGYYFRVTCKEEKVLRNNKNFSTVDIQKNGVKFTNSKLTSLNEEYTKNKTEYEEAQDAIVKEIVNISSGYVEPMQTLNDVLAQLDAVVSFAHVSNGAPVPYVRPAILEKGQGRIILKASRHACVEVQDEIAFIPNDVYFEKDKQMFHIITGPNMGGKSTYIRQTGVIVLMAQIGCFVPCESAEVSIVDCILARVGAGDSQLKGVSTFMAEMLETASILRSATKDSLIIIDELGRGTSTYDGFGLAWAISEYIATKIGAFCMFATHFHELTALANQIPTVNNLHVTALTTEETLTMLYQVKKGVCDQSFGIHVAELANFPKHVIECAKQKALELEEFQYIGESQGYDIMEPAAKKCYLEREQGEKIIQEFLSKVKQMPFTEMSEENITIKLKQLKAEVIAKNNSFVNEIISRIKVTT

B1: 抗MSH2蛋白单克隆抗体(1B11-14-16) (antibody, V domains shown)
VH: QVQLQQSGAELMKPGASVRISCKATGYTFTRYWIEWVKERPGHGLEWIGEILPGSGGTNYNEKFKGKATFTADTSSNTVHMQLNSLTSEDSAVYYCVKREGPYWGRGTLVTVSA
VL: DVLMTQTPLSLPVSLGDQASISCRSSQSIVYRTGSTFLEWYLQKPGQSPKLLIYKVSNRFSGVPDRFSGSGSGTDFTLKISRVEAEDLGVYYCFQGSHLPYTFGGGTKLEIK
notes: also called MSH2(1B11-14-16)单克隆抗体; 1B11-14-16的MSH2
Regarding B1, the binding result is given as “binds”.

The values above are taken from CN110218251A (FUZHOU MAIXIN BIOTECHNOLOGY DEV CO LTD, dated 2019).
